Tests used:
[1] = molecular target: T1, human CD228 (R&D Systems Custom02; Lot DCWR021505A) (human, UniProt P08582 20-709, limits assumed); test: ELISA on plate-coated human CD228, pH 7.5
T1 sequence (looked up): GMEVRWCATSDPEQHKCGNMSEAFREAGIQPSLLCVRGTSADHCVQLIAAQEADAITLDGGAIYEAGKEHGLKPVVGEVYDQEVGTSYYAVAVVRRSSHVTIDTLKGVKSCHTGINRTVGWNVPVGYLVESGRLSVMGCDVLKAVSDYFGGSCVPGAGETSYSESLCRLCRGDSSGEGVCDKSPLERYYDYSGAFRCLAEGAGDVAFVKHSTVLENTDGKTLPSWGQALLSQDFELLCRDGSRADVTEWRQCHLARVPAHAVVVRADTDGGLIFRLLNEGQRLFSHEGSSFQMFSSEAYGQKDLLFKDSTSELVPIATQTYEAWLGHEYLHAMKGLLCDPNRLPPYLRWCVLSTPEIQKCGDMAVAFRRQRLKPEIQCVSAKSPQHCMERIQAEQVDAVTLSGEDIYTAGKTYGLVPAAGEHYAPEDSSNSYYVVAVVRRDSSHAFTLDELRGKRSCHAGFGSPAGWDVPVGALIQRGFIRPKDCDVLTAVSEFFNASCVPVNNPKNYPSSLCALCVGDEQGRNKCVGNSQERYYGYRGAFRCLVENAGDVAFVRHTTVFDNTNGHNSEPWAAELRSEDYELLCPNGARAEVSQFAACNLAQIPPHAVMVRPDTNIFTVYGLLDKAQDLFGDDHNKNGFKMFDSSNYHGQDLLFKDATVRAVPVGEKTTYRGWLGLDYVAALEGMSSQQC
Description: (§1) The ability of various anti-CD228 ADCs to bind to CD228 was evaluated at pH values ranging from 4 to 7.5 using a standard ELISA protocol. Briefly, 100 ng of human CD228 (R&D Systems Custom02; Lot DCWR021505A) or BSA (Sigma; Catalog No. A7030-100G) were diluted in PBS and added to each well overnight at 4° C. Plates were then washed three times with PBS-T (EMD Millipore; Catalog No. 5246531EA). After washing, plates were blocked with 3% (w/v) BSA in PBS-T for 1 hour at room temperature. Excess blocking buffer was then removed and the primary antibody was added in 3-fold dilutions in diluent buffer (0.15M citrate-phosphate buffer pH 4.0-7.5) starting at an antibody concentration of 60 nM. After incubating for 1 hour at room temperature, the plates were washed 3 times and then incubated with secondary antibody (Goat anti-human IgG Fc-specific HRP-conjugated, Jackson ImmunoResearch code #109-035-098) in PBS-T with 1% BSA. After incubating for 30 minutes at room temperature, plates were washed 3 times. 100 μl TMB substrate (Life Technologies; Cat #002023) was then added to each well. After incubating 10 minutes at room temperature, 100 μl H2SO4 was added to each well to stop the reaction, plates were covered with clear plate seal and read on an Envision at […]. pH-dependent binding for hL49, cL235, CD228Ab1, CD228Ab2 and CD228Ab3, CD228Ab4 are shown in FIG. 34A-34F.

[2] = molecular target: T2, human CD228 on the cell surface (RPMI-7951 cells stably expressing human CD228; A375 cells) (human, UniProt P08582 20-709); test: saturation binding by flow cytometry, RPMI-7951 cells stably expressing human CD228; PE anti-human IgG secondary; row 'ug/mL' of the drawn table headed 'kD'
T2 construct: whole, on cells; also called p97; melanotransferrin
T2 sequence (looked up): T1 sequence (looked up)
Description: (§2) The KD for each resulting antibody was then determined by a saturation binding assay. Briefly, 1×10⁵ RPMI-7951 cells stably expressing human CD228 were aliquoted per well of a 96-well v-bottom plates. Each CD228 antibody was added in concentrations ranging from 0.05 pM to 340 nM and incubated on ice for 60 minutes. Cells were pelleted and washed 3× with PBS/BSA followed by addition of 10 ug/ml of a PE labeled anti-human IgG goat secondary antibody and incubated on ice for an additional 60 minutes. Cells were pelleted and washed 3× with PBS/BSA and resuspended in 125 μL of PBS/BSA. Fluorescence was analyzed by flow cytometry, using percent of saturated fluorescent signal to determine percent bound and to subsequently calculate apparent KD. The binding curves for recombinant human anti-CD228 antibodies are shown in FIG. 13 and the KD for cL49ec (chimeric LA9 with an S239C mutation in the […] constant region), hL49 HALA G1, hL49 HALB G1, and hL49 HALC G1 are shown in Table 8. The antibody called “HALC,” “hL49,” or “hL49-HALC” which comprises heavy chain “HA” and the light chain “LC” was selected for use in all other experiments.

[3] = molecular target: T1, human CD228 (R&D Systems Custom02; Lot …); test: ELISA on plate-coated human CD228, pH 6.66
Description: as §1

[4] = molecular target: T2, human CD228 on the cell surface …; test: saturation binding by flow cytometry on RPMI-7951 cells stably expressing human CD228; apparent KD
Description: as §2

[5] = molecular target: T1, human CD228 (R&D Systems Custom02; Lot …); test: ELISA on plate-coated human CD228, pH 7.4
Description: as §1

[6] = molecular target: T1, human CD228 (R&D Systems Custom02; Lot …); test: ELISA on plate-coated human CD228, pH 7.1
Description: as §1

[7] = molecular target: T1, human CD228 (R&D Systems Custom02; Lot …); test: ELISA on plate-coated human CD228, pH 6.3
Description: as §1

[8] = molecular target: T1, human CD228 (R&D Systems Custom02; Lot …); test: ELISA on plate-coated human CD228, pH 5.6
Description: as §1

[9] = molecular target: T1, human CD228 (R&D Systems Custom02; Lot …); test: ELISA on plate-coated human CD228, pH 5.9
Description: as §1

EC50 [1]: 1.18 nM | Kd [2]: 0.6 mg/L | EC50 [3]: 1.54 nM | Kd [4]: 4 nM | EC50 [5]: 0.856 nM | EC50 [6]: 1.1 nM | EC50 [7]: 2.96 nM | EC50 [8]: 21.8 nM | EC50 [9]: 5.31 nM
B1: hL49 HALC G1 (antibody, human IgG1, kappa, V domains shown)
VH: QVQLQESGPGLVKPSETLSLTCTVSGDSITSGYWNWIRQPPGKGLEYIGYISDSGITYYNPSLKSRVTISRDTSKNQYSLKLSSVTAADTAVYYCARRTLATYYAMDYWGQGTLVTVSS
VL: DFVMTQSPLSLPVTLGQPASISCRASQSLVHSDGNTYLHWYQQRPGQSPRLLIYRVSNRFSGVPDRFSGSGSGTDFTLKISRVEAEDVGVYYCSQSTHVPPTFGQGTKLEIKT
notes: Humanized L49, IgG1 kappa

Reference: patent publication US20240409658A1 (Seagen, published 2024)
